The text below walks through data of paper PMC6591170.

For this data set, the target named is human alpha-thrombin (Homo sapiens, UniProt P00734;P00734 315-363;364-622). As to the kind of experiment: ITC; ITC in PBS (10 mM phosphate, 2.7 mM KCl, 137 mM NaCl), pH 7.4, 22 °C; ODN 25 or 100 µM into thrombin 2.5 or 10 µM. A general note: In ITC the heat of successive injections is recorded.

Broadly, the Kd is a measure of binding affinity in units of concentration.

B1: AA (structured_DNA)
DNA 1: GGTTGGTGTGGTTGGA
DNA 2: GGTTGGTGTGGTTGGA
modifications: 3'-3' phosphodiester inversion joins the two listed segments covalently (both written 5' to 3'); one molecule, not a duplex
Take B1: the Kd amounted to 10 nM.
On to GGTTGGTGTGGTTGG (structured_DNA) [TBA], for which the Kd is 8 nM.
